Experimental data taken from patent US20260242485A1.

Legend:
[1] = molecular target: human CD32B expressed on CHO-K1 cells (human) (UniProt P31994); test: flow cytometry, CHO-K1-hCD32B cells, geometric mean
[2] = molecular target: human CD16B-NA1 expressed on CHO-K1 cells (human) (UniProt O75015); test: flow cytometry, CHO-K1-hCD16B-NA1 cells, geometric mean
human CD16B-NA1 expressed on CHO-K1 cells (human), sequence (O75015 other isoform, or with tags, fused parts or gaps): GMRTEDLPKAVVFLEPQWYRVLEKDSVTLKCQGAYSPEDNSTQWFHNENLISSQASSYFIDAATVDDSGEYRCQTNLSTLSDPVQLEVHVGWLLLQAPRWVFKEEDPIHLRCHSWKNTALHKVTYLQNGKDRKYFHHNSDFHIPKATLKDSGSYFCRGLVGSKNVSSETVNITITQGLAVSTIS

human CD32B expressed on CHO-K1 cells (human), sequence (P31994 43-310): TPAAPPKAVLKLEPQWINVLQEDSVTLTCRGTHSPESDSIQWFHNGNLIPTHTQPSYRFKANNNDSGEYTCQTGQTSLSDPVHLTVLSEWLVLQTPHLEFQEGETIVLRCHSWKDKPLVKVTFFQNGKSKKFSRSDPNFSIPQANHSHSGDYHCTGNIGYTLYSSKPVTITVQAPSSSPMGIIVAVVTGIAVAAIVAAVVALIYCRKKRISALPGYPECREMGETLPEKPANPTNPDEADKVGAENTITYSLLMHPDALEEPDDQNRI

EC50 (read off the curve) [1] [nM] | EC50 (read off the curve) [2] [nM] | Substance
0.1 |  | Positive control (6G11) (antibody)
 | 0.1 | Positive control (3G8) (antibody)
 | 0.1 to 1 | 3G8-mIgG2aLALAPG (antibody)
